# B1: Diphthamide biosynthesis protein 3 (Saccharomyces cerevisiae), Q3E840 (parent)
# chain: MSTYDEIEIEDMTFEPENQMFTYPCPCGDRFQIYLDDMFEGEKVAVCPSCSLMIDVVFDKEDLAEYYEEAGIHPPEPIAAAA
# partner: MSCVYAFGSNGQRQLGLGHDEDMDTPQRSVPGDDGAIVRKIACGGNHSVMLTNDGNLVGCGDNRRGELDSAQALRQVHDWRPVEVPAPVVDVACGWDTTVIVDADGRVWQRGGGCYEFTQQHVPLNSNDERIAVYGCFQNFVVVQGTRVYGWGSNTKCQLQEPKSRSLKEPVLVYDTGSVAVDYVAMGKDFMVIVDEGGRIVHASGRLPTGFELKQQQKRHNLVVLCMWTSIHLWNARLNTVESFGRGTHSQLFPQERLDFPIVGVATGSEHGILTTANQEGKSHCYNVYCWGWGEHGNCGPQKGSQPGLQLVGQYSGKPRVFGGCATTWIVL
# B2: Diphthamide biosynthesis protein 3 (Saccharomyces cerevisiae), Q3E840 (parent)
# chain: B1 chain
# partner: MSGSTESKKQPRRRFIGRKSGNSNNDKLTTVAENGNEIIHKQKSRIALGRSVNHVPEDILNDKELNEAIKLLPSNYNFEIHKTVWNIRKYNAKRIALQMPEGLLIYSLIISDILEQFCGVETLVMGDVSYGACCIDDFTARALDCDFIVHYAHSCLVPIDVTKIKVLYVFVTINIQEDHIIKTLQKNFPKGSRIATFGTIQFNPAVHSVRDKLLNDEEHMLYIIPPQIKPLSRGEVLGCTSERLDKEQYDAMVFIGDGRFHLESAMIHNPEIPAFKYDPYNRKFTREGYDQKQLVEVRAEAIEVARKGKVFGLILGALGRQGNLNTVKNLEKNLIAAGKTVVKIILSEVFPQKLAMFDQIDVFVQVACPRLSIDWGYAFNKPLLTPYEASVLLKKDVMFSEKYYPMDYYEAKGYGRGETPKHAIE
# B3: Protein KTI13 (Saccharomyces cerevisiae), P31386 (parent)
# chain: B1 partner
# partner: B1 chain
# B4: Diphthamide biosynthesis protein 3 (Saccharomyces cerevisiae), Q3E840 (parent)
# chain: B1 chain
# partner: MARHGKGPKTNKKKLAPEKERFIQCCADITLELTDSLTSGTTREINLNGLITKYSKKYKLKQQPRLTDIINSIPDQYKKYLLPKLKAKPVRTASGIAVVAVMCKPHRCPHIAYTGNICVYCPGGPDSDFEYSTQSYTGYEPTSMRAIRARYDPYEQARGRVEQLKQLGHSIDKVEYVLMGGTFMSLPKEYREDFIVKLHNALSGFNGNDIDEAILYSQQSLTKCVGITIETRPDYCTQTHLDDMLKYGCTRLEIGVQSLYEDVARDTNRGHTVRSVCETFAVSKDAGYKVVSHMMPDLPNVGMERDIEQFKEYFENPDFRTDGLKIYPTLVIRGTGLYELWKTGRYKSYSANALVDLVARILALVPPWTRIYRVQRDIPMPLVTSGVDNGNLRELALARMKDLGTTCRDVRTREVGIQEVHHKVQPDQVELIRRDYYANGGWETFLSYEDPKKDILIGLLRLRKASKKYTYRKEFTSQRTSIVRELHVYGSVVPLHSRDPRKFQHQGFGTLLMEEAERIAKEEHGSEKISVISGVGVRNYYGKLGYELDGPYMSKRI
# Variants of: B1
# Details: with ats1_yeast ATS1, P31386
row,effect of a mutation on the interaction,Variant
1,decreasing interaction strength,MSTAAEIEIEDMTFEPENQMFTYPCPCGDRFQIYLDDMFEGEKVAVCPSCSLMIDVVFDKEDLAEYYEEAGIHPPEPIAAAA [Y4A;D5A]
2,decreasing interaction strength,MSTYDEAEAEDMTFEPENQMFTYPCPCGDRFQIYLDDMFEGEKVAVCPSCSLMIDVVFDKEDLAEYYEEAGIHPPEPIAAAA [I7A;I9A]
3,decreasing interaction strength,MSTADEIEIEDMTFEPENQMFTYPCPCGDRFQIYLDDMFEGEKVAVCPSCSLMIDVVFDKEDLAEYYEEAGIHPPEPIAAAA [Y4A]

# Variants of: B1
# Details: with ats1_yeast ATS1, P31386
# Remark: another data set of the same source
row,effect of a mutation on the interaction,Variant
1,decreasing interaction strength,MSTYDAIAIEDMTFEPENQMFTYPCPCGDRFQIYLDDMFEGEKVAVCPSCSLMIDVVFDKEDLAEYYEEAGIHPPEPIAAAA [E6A;E8A]
2,decreasing interaction strength,MSTYAEIEIEDMTFEPENQMFTYPCPCGDRFQIYLDDMFEGEKVAVCPSCSLMIDVVFDKEDLAEYYEEAGIHPPEPIAAAA [D5A]

# Variants of: B1
# Details: with ats1_yeast ATS1, P31386
# Remark: another data set of the same source
row,effect of a mutation on the interaction,Variant
1,decreasing interaction strength,MSTYDEIAIEDMTFEPENQMFTYPCPCGDRFQIYLDDMFEGEKVAVCPSCSLMIDVVFDKEDLAEYYEEAGIHPPEPIAAAA [E8A]
2,disrupting interaction strength,MSTYAEIEIEDMTFEPENQMFTYPCPCGDRFQIYLDDMFEGEKVAVCPSCSLMIDVVFDKEDLAEYYEEAGIHPPEPIAAAA [D5A]
3,disrupting interaction strength,MSTADEIEIEDMTFEPENQMFTYPCPCGDRFQIYLDDMFEGEKVAVCPSCSLMIDVVFDKEDLAEYYEEAGIHPPEPIAAAA [Y4A]

# Variants of: B2
# Details: with dph1_yeast DPH1, P40487
row,effect of a mutation on the interaction,Variant
1,disrupting interaction strength,MSTYDEIEIEDMTFEPENQMFTYPCPCGDRFQIYLDDMFEGEKVAVSPSCSLMIDVVFDKEDLAEYYEEAGIHPPEPIAAAA [C47S]
2,disrupting interaction strength,MSTYDEIEIEDMTFEPENQMFTYPSPCGDRFQIYLDDMFEGEKVAVCPSCSLMIDVVFDKEDLAEYYEEAGIHPPEPIAAAA [C25S]
3,disrupting interaction strength,MSTYDEIEIEDMTFEPENQMFTYPCPSGDRFQIYLDDMFEGEKVAVCPSCSLMIDVVFDKEDLAEYYEEAGIHPPEPIAAAA [C27S]
4,disrupting interaction strength,MSTYDEIEIEDMTFEPENQMFTYPCPCGDRFQIYLDDMFEGEKVAVCPSSSLMIDVVFDKEDLAEYYEEAGIHPPEPIAAAA [C50S]

# Variants of: B3
# Details: with dph3_yeast KTI11, Q3E840
row,effect of a mutation on the interaction,Variant
1,decreasing interaction strength,MSCVYAFGSNGQRQLGLGHDEDMDTPQRSVPGDDGAIVRKIACGGNHSVMLTNDGNLVGCGDNRRGELDSAQALRQVHDWRPVEVPAPVVDVACGWDTTVIVDADGRVWQRGGGCYEFTQQHVPLNSNDERIAVYGCFQNFVVVQGTRVYGWGSNTKCQLQEPKSRSLKEPVLVYDTGSVAVDYVAMGKDFMVIVDEGGRIVHASGRLPTGFELKQQQKRHNLVVLCMWTSIHLWNARLNTVESFGRGTHSQLFPQERLDFPIVGVATGSEHGILTTANQEGKSHCYNVYCWGAGEHGNCGPQKGSQPGLQLVGQYSGKPRVFGGCATTWIVL [W294A]
2,disrupting interaction strength,MSCVYAFGSNGQRQLGLGHDEDMDTPQRSVPGDDGAIVRKIACGGNHSVMLTNDGNLVGCGDNRRGELDSAQALRQVHDWRPVEVPAPVVDVACGWDTTVIVDADGRVWQRGGGCYEFTQQHVPLNSNDERIAVYGCFQNFVVVQGTRVYGWGSNTKCQLQEPKSRSLKEPVLVYDTGSVAVDYVAMGKDFMVIVDEGGRIVHASGRLPTGFELKQQQKRHNLVVLCMCTSIHLWNARLNTVESFGRGTHSQLFPQERLDFPIVGVATGSEHGILTTANQEGKSHCYNVYCWGWGEHGNCGPQKGSQPGLQLVGQYSGKPRVFGGCATTWIVL [W229C]
3,disrupting interaction strength,MSCVYAFGSNGQRQLGLGHDEDMDTPQRSVPGDDGAIVRKIACGGNHSVMLTNDGNLVGCGDNRRGELDSAQALRQVHDWRPVEVPAPVVDVACGWDTTVIVDADGRVWQRGGGCYEFTQQHVPLNSNDERIAVYGCFQNFVVVQGTRVYGWGSNTKCQLQEPKSRSLKEPVLVYDTGSVAVDYVAMGKDFMVIVDEGGRIVHASGRLPTGFELKQQQKRHNLVVLCMATSIHLWNARLNTVESFGRGTHSQLFPQERLDFPIVGVATGSEHGILTTANQEGKSHCYNVYCWGWGEHGNCGPQKGSQPGLQLVGQYSGKPRVFGGCATTWIVL [W229A]

# Variants of: B3
# Details: with dph3_yeast KTI11, Q3E840
# Remark: another data set of the same source
row,effect of a mutation on the interaction,Variant
1,increasing interaction strength,MSCVYAFGSNGQRQLGLGHDEDMDTPQRSVPGDDGAIVRKIACGGNHSVMLTNDGNLVGCGDNRRGELDSAQALRQVHDWRPVEVPAPVVDVACGWDTTVIVDADGRVWQRGGGCYEFTQQHVPLNSNDERIAVYGCFQNFVVVQGTRVYGWGSNTKCQLQEPKSRSLKEPVLVYDTGSVAVDYVAMGKDFMVIVDEGGRIVHASGRLPTGFELKQQQKRHNLVVLCMWTSIHLWNARLNTVESFGRGTHSQLFPQERLDFPIVGVATGSEHGILTTANQEGKSHCYNVYCWGWGAHGNCGPQKGSQPGLQLVGQYSGKPRVFGGCATTWIVL [E296A]
2,decreasing interaction strength,MSCVYAFGSNGQRQLGLGHDEDMDTPQRSVPGDDGAIVRKIACGGNHSVMLTNDGNLVGCGDNRRGELDSAQALRQVHDWRPVEVPAPVVDVACGWDTTVIVDADGRVWQRGGGCYEFTQQHVPLNSNDERIAVYGCFQNFVVVQGTRVYGWGSNTKCQLQEPKSRSLKEPVLVYDTGSVAVDYVAMGKDFMVIVDEGGRIVHASGRLPTGFELKQQQKRHNLVVLCMATSIHLWNARLNTVESFGRGTHSQLFPQERLDFPIVGVATGSEHGILTTANQEGKSHCYNVYCWGWGEHGNCGPQKGSQPGLQLVGQYSGKPRVFGGCATTWIVL [W229A]
3,increasing interaction strength,MSCVYAFGSNGQRQLGLGHDEDMDTPQRSVPGDDGAIVRKIACGGNHSVMLTNDGNLVGCGDNRRGELDSAQALRQVHDWRPVEVPAPVVDVACGWDTTVIVDADGRVWQRGGGCYEFTQQHVPLNSNDERIAVYGCFQNFVVVQGTRVYGWGSNTKCQLQEPKSRSLKEPVLVYDTGSVAVDYVAMGKDFMVIVDEGGRIVHASGRLPTGFELKQQQKRHNLVVLCMWTSIHLWNARLNTVESFGRGTHSQLFPQERLDFPIVGVATGSEHGILTTANQEGKSHCYNVYCWGWGEAGNCGPQKGSQPGLQLVGQYSGKPRVFGGCATTWIVL [H297A]

# Variants of: B3
# Details: with dph3_yeast KTI11, Q3E840
# Remark: another data set of the same source
row,effect of a mutation on the interaction,Variant
1,decreasing interaction strength,MSCVYAFGSNGQRQLGLGHDEDMDTPQRSVPGDDGAIVRKIACGGNHSVMLTNDGNLVGCGDNRRGELDSAQALRQVHDWRPVEVPAPVVDVACGWDTTVIVDADGRVWQRGGGCYEFTQQHVPLNSNDERIAVYGCFQNFVVVQGTRVYGWGSNTKCQLQEPKSRSLKEPVLVYDTGSVAVDYVAMGKDFMVIVDEGGRIVHASGRLPTGFELKQQQKRHNLVVLCMCTSIHLWNARLNTVESFGRGTHSQLFPQERLDFPIVGVATGSEHGILTTANQEGKSHCYNVYCWGWGEHGNCGPQKGSQPGLQLVGQYSGKPRVFGGCATTWIVL [W229C]

# Variants of: B4
# Details: with elp3_yeast ELP3, Q02908
row,effect of a mutation on the interaction,Variant
1,disrupting interaction strength,MSTYDEIEIEDMTFEPENQMFTYPCPCGDRFQIYLDDMFEGEKVAVCPSSSLMIDVVFDKEDLAEYYEEAGIHPPEPIAAAA [C50S]
